Assay results reported in publication PMC7851562 (2020).

T1: coxsackievirus and adenovirus receptor (CAR), as used in SPR (UniProt P78310 20-365)
T1 chain: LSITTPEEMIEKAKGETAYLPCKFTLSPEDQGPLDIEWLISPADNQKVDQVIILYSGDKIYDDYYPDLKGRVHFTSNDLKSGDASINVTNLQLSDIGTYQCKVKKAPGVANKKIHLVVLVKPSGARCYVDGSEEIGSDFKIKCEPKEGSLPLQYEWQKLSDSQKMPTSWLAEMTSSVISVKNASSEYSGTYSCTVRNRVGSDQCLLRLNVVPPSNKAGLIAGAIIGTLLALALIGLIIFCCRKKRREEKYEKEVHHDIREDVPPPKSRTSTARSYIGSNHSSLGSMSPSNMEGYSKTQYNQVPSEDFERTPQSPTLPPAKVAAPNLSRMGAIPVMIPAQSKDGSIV


Key:
[1] = target: coxsackievirus and adenovirus receptor (CAR), as used in SPR (UniProt P78310); experiment: SPR; recombinant fiber knob protein over receptor; about 5,000 RU of DSG2-Fc amine coupled to a CM5 chip at 10 μl/min; in triplicate; CAR and CD46 surfaces as previously described (ref 36)
[2] = target: coxsackievirus and adenovirus receptor (CAR) on CHO-CAR cells (UniProt P78310)
[3] = target: T1, coxsackievirus and adenovirus receptor …; experiment: SPR

Molecule | Kd [1] | inhibition of HAdV-C5 transduction (luciferase) of CHO-CAR cells preincubated with recombinant HAdV-D49K [2] | koff [3]
human adenovirus type 49 fiber knob protein (domain or fragment) | 190 nM | 50% | –
human adenovirus type 49 fiber knob protein (domain or fragment) MRGSHHHHHHGSKKGDLVAWNKENDRRTLWTTPDPSPNCKVSEEKDSKLTLVLTKCGSQILASVSLLVVKGKFANINNKTNPGEDYKKFSVKLLFDANGKLLTGSSLDGNYWNYKNKDSVIGSPYENAVPFMPNSTAYPKIINNGTANPEDKKSAAKKTIVTNVYLGGDAAKPVATTISFNKETESNCVYSITFDFAWNKTYKNVPFDSSSLTFSYIAQDAEDKNE | – | – | 0.0012 s⁻¹
